Assay [1] concerns the target T1, biotinylated human recombinant IL-12Rβ2 (produced in-house) (human, UniProt Q99665 24-622, random biotinylated).
T1 construct: Soluble recombinant protein used for panning, ELISA and BLI; also called hIL-12RB2; hIL12RB2
T1 sequence: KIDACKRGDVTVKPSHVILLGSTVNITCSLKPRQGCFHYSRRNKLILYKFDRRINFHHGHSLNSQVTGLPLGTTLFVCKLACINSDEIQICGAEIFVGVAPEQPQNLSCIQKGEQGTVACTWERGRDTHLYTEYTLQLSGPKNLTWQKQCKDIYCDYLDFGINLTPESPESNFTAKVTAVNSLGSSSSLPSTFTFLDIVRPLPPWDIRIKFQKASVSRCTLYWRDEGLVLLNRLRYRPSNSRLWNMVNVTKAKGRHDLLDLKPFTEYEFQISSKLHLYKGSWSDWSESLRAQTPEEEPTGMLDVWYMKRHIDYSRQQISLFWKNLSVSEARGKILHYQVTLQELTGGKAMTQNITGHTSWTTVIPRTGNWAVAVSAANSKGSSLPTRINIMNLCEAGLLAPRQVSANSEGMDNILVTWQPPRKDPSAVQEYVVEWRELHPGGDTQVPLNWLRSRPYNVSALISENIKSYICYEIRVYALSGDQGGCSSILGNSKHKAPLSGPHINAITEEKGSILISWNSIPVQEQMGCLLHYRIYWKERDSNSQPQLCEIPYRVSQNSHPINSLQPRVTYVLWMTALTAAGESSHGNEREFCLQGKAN
As to the kind of experiment: BLI (Octet Red), periplasmic extract on biotinylated human IL-12Rβ2 on streptavidin tips. Background: BLI is a label-free optical method that tracks binding on a fibre tip over time.

Assay [2] concerns the target T1, biotinylated human recombinant IL-12Rβ2 …. As to the kind of experiment: ELISA, periplasmic extract on biotinylated human IL-12Rβ2; signal over streptavidin control well.
Assay [3] has as its target T2, biotinylated mouse recombinant IL-12Rβ2 (produced in-house) (mouse, UniProt P97378 24-637, random biotinylated).
T2 construct: Soluble recombinant protein used for panning, ELISA and BLI; also called mIL-12RB2; mIL12RB2
T2 sequence: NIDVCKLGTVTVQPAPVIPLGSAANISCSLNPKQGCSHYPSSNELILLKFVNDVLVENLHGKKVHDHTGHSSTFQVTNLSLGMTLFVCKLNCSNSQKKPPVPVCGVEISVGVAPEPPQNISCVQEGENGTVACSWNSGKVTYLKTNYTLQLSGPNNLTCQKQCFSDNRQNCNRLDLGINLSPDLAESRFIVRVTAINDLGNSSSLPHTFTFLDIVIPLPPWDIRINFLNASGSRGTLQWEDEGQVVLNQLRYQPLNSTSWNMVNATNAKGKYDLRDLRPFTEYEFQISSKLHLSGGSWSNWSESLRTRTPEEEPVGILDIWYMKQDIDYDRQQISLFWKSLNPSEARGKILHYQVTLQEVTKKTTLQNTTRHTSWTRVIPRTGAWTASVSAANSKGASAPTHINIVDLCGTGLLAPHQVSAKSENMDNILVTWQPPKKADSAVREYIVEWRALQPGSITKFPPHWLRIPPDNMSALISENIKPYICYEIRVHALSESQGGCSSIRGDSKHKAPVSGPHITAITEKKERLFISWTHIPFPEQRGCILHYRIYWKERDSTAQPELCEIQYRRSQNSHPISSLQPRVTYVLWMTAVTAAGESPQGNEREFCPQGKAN
As to the kind of experiment: ELISA, periplasmic extract on biotinylated mouse IL-12Rβ2; signal over streptavidin control well. (In general: In an ELISA, binding on a coated surface is turned into a signal by an enzyme label.)

For assay [4], the target named is T1, biotinylated human recombinant IL-12Rβ2 …. As to the kind of experiment: BLI (Octet Red), periplasmic extract on biotinylated human IL-12Rβ2 on streptavidin tips, 1:1 model.
Assay [5] addresses T2, biotinylated mouse recombinant IL-12Rβ2 …. As to the kind of experiment: BLI (Octet Red), periplasmic extract on biotinylated mouse IL-12Rβ2 on streptavidin tips.
The target in assay [6] is T3, human IL-12Rβ2 expressed on cells (human, UniProt Q99665 24-862).
T3 construct: the cell lines are described by plasmid or cDNA number only; also called hIL-12RB2; HEK293T transiently transfected with human IL-12Rβ2
T3 sequence: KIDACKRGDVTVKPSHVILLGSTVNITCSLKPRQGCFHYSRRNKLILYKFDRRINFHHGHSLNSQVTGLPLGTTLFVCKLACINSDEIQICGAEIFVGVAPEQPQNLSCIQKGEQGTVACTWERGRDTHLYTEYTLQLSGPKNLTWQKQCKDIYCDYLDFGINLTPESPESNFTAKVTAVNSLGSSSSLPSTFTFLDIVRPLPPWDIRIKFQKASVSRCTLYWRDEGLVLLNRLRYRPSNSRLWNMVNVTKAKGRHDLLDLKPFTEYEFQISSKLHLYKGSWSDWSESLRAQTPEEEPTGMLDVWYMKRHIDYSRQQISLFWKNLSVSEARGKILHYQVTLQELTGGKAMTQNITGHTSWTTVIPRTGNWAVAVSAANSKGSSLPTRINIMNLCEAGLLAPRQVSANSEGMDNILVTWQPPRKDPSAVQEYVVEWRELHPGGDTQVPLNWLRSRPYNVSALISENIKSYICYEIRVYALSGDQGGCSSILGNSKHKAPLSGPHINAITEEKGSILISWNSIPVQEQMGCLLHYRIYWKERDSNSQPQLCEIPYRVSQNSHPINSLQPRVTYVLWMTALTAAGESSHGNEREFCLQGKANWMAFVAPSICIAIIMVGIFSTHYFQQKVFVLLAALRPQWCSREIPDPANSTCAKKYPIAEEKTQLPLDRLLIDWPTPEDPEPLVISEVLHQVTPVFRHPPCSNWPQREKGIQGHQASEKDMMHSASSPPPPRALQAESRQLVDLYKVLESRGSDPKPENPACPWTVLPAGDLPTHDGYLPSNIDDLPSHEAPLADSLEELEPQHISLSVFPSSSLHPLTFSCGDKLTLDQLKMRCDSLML
As to the kind of experiment: flow cytometry, periplasmic extract VHH-HA on HEK293T cells transiently expressing human IL-12Rβ2. On the technique in general: A flow cytometer gives signals particle by particle.

In assay [7] the target is T4, mouse IL-12Rβ2 expressed on cells (mouse, UniProt P97378 24-874).
T4 construct: the cell lines are described by plasmid or cDNA number only; also called mIL-12RB2; HEK293T transiently transfected with mouse IL-12Rβ2
T4 sequence: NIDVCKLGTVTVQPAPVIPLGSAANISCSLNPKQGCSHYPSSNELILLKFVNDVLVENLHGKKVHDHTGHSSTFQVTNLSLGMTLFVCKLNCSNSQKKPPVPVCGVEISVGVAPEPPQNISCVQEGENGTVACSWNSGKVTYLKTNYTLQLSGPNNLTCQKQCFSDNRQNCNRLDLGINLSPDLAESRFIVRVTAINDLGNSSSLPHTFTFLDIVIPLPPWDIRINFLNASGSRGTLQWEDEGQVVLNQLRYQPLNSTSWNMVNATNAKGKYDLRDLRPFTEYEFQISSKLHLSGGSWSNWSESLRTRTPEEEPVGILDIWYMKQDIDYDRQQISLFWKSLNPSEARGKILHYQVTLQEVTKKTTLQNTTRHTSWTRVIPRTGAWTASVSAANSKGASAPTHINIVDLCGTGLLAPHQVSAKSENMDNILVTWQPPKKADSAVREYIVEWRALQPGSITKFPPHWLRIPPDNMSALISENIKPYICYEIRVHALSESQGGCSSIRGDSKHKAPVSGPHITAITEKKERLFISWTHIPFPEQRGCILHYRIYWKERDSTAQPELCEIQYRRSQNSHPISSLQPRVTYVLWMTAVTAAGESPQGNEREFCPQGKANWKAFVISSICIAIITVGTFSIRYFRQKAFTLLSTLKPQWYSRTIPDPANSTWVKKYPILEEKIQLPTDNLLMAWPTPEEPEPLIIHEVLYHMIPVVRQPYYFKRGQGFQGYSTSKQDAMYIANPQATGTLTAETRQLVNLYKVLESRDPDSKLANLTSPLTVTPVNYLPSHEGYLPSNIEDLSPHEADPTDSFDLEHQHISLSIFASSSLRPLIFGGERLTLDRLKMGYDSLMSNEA
As to the kind of experiment: flow cytometry, periplasmic extract VHH-HA on HEK293T cells transiently expressing mouse IL-12Rβ2.

For assay [8], the target named is T2, biotinylated mouse recombinant IL-12Rβ2 …. As to the kind of experiment: BLI (Octet Red), periplasmic extract on biotinylated mouse IL-12Rβ2 on streptavidin tips, 1:1 model.
Assay [9] concerns the target T5, biotinylated recombinant mouse IL-12Rβ2 (mouse, UniProt P97378 24-637, random biotinylated).
T5 construct: Recombinant protein produced in-house; also called mIL-12RB2; mouse IL-12RB2
T5 sequence: T2 sequence
As to the kind of experiment: ELISA, P.E., biotinylated antigen.

Assay [10] deals with T6, biotinylated recombinant human IL-12Rβ2 (human, UniProt Q99665 24-622, random biotinylated).
T6 construct: Recombinant protein produced in-house; also called hIL-12RB2; human IL-12RB2
T6 sequence: T1 sequence
As to the kind of experiment: ELISA, P.E., biotinylated antigen.

In assay [11] the target is T5, biotinylated recombinant mouse IL-12Rβ2. As to the kind of experiment: BLI, P.E., off-rate ranking.
The target of assay [12] is T6, biotinylated recombinant human IL-12Rβ2. As to the kind of experiment: BLI, P.E., off-rate ranking.

These results are taken from patent US20260209362A1 (VIB VZW, published 2026).

The koff is the first-order rate constant of dissociation.

B1: anti-IL-12Rβ2 VHH clone 3CRHM14 (clone ID 21053) (VHH)
VHH: QVQLQESGGGLVQAGGSLRLSCAASGRTFSNYAMAWFRQAPGTEREFVAGLSGSGGDTEFYDDSVKGRFAISRDSAKNTVWLQMNSLKPEDTAVYYCAAATHVVVHYGLVRRRGTYDYWGQGTQVTVSS
notes: Tested as periplasmic extract; not shown: C-terminal HA tag
On to B1, for which the Response in [1] stood at 1.19; in assay [5] it was 0.957. For the same molecule, in [2], the “hIL12RB2/control (ELISA)” value is 3.11 ratio. In addition, in assay [3], the “mIL12RB2/control (ELISA)” value came out at 25.1 ratio. The koff in assay [4] was 0.00532 s⁻¹; in assay [8], 0.00483 s⁻¹. For the same molecule, the “% cells bound” value in [6] is 35.8%; in [7] it was 18.6%. The dMFI in [6] is 589; in assay [7], 312.

B2: anti-IL-12Rβ2 VHH clone 3CRHM99 (clone ID 21062) (VHH)
VHH: QVQLQESGGGLVQPGGSLRLSCAASGISSSRLHVGWFRQSPGKEREFVAAISLSGGTQAYTDSVKGRFTISGDNVKNTAYLQMNSLRPEDTAVYYCAARERFIWTWSDLTYDYWGQGTQVTVSS
notes: as for B1
For the molecule B2, the Response was determined as 1.45 in [1] and 0.812 in assay [5]. Besides, in assay [2], the “hIL12RB2/control (ELISA)” value stood at 4.24 ratio. The “mIL12RB2/control (ELISA)” value in assay [3] was determined as 5.24 ratio. The results for the koff in assay [4] and in assay [8] were 0.00634 s⁻¹ and 0.00671 s⁻¹, respectively. For the same molecule, the “% cells bound” value was determined as 24.4% in assay [6] and 10.7% in [7]. Further, the figures for the dMFI in assay [6] and in [7] were 458 and 251, respectively.

B3: anti-IL-12Rβ2 VHH clone 3CRHM73 (clone ID 21060) (VHH)
VHH: QVQLQESGGGLVQAGGSLSLSCAASGSAFRLNFMGWYRQAPGKQRELVAAINSGGTEIYHDSVKGRFTISRDNADSTVWLQMNSLKPDDTAVYYCAADRGISWSKLAGGMDYWGKGTQVTVSS
notes: as for B1
On to B3, for which the Response in assay [1] was found to be 1.45; in assay [5], 0.944. Besides, the “hIL12RB2/control (ELISA)” value in assay [2] is 6.9 ratio. The “mIL12RB2/control (ELISA)” value in [3] was 26.3 ratio. The koff in assay [4] and in assay [8] was 0.00605 s⁻¹ throughout. Moreover, the “% cells bound” value in assay [6] was 19.5%; in assay [7], 10.4%. The figures for the dMFI in assay [6] and in assay [7] were 297 and 257, respectively.

B4: anti-IL-12Rβ2 VHH clone 3CAHM11 (clone ID 21050) (VHH)
VHH: QVQLQESGGGLVQAGGSLRLSCAASGRTFNNYAMAWFRQAPGKEREFIAAITRSDTTLYIDSVKGRFTISRDNAKNTVALQMNSLKPEDTAVYYCAAGMPYSYSDYPRDSKYDYWGRGTQVTVSS
notes: as for B1
For the molecule B4, the Response in assay [1] turned out to be 1.4; in [5], 1.03. The “hIL12RB2/control (ELISA)” value in assay [2] amounted to 3.04 ratio. The “mIL12RB2/control (ELISA)” value in assay [3] is 38.8 ratio. Further, the koff in [4] is 0.00519 s⁻¹; in assay [8], 0.00462 s⁻¹. The “% cells bound” value turned out to be 37.6% in [6] and 7.51% in [7]. Also, the dMFI in assay [6] was found to be 684; in [7], 194.

B5: anti-IL-12Rβ2 VHH clone 3CAHM11 (clone ID 21050) (VHH, not shown: small tags and cut ends)
VHH: B4 VHH
notes: periplasmic extract
For the molecule B5, the “ELISA mIL-12RB2/control” value in assay [9] is 38.8. In addition, the “ELISA hIL-12RB2/control” value in assay [10] was 3.04. For the same molecule, the results for the Response in [11] and in assay [12] were 1.03 and 1.4, respectively. The koff in assay [11] is 0.00462 s⁻¹; in assay [12] it was 0.00519 s⁻¹.
